Data: US20230145060A1
Like-named read-outs stand apart in the source and are kept apart here.

Assays:
Assay in all cases: cell-based or functional assay
[1] = biological target: HIV-1 Env of pseudovirus T257 (HIV-1)
[2] = biological target: HIV-1 Env of pseudovirus PV0 (HIV-1)
[3] = biological target: HIV-1 Env of pseudovirus THRO (HIV-1)
[4] = biological target: HIV-1 Env of pseudovirus 3817 (HIV-1)
[5] = biological target: HIV-1 Env of pseudovirus ZM197 (HIV-1)
[6] = biological target: HIV-1 Env of pseudovirus pCNE8 (HIV-1)
[7] = biological target: HIV-1 Env of pseudovirus X2088 (HIV-1)
[8] = biological target: HIV-1 Env of pseudovirus BG505 (HIV-1)
[9] = biological target: HIV-1 Env of pseudovirus SF162 (HIV-1) (UniProt P19550)
[10] = biological target: HIV-1 Env of pseudovirus 278 (HIV-1)
[11] = biological target: HIV-1 Env of pseudovirus Du422 (HIV-1)
[12] = biological target: HIV-1 Env of pseudovirus JRCSF (HIV-1) (UniProt P20871)
[13] = biological target: HIV-1 Env of pseudovirus X1632 (HIV-1)
[14] = biological target: HIV-1 Env of pseudovirus ZM106 (HIV-1)
[15] = biological target: HIV-1 Env of pseudovirus T257 (HIV-1); remark: listed apart in the source
[16] = biological target: HIV-1 Env of pseudovirus PV0 (HIV-1); remark: listed apart in the source
[17] = biological target: HIV-1 Env of pseudovirus THRO (HIV-1); remark: listed apart in the source
[18] = biological target: HIV-1 Env of pseudovirus 3817 (HIV-1); remark: listed apart in the source
[19] = biological target: HIV-1 Env of pseudovirus ZM197 (HIV-1); remark: listed apart in the source
[20] = biological target: HIV-1 Env of pseudovirus pCNE8 (HIV-1); remark: listed apart in the source
[21] = biological target: HIV-1 Env of pseudovirus X2088 (HIV-1); remark: listed apart in the source
[22] = biological target: HIV-1 Env of pseudovirus BG505 (HIV-1); remark: listed apart in the source
[23] = biological target: HIV-1 Env of pseudovirus SF162 (HIV-1) (UniProt P19550); remark: listed apart in the source
[24] = biological target: HIV-1 Env of pseudovirus 278 (HIV-1); remark: listed apart in the source
[25] = biological target: HIV-1 Env of pseudovirus Du422 (HIV-1); remark: listed apart in the source
[26] = biological target: HIV-1 Env of pseudovirus JRCSF (HIV-1) (UniProt P20871); remark: listed apart in the source
[27] = biological target: HIV-1 Env of pseudovirus X1632 (HIV-1); remark: listed apart in the source
[28] = biological target: HIV-1 Env of pseudovirus ZM106 (HIV-1); remark: listed apart in the source

Row | Substance | IC50, neutralization of T257 PsV [1] [µg/mL] | IC50, neutralization of PV0 PsV [2] [µg/mL] | IC50, neutralization of THRO PsV [3] [µg/mL] | IC50, neutralization of 3817 PsV [4] [µg/mL] | IC50, neutralization of ZM197 PsV [5] [µg/mL] | IC50, neutralization of pCNE8 PsV [6] [µg/mL] | IC50, neutralization of X2088 PsV [7] [µg/mL] | IC50, neutralization of BG505 PsV [8] [µg/mL] | IC50, neutralization of 278 PsV [10] [µg/mL] | IC50, neutralization of Du422 PsV [11] [µg/mL] | IC50, neutralization of JRCSF PsV [12] [µg/mL] | IC50, neutralization of X1632 PsV [13] [µg/mL] | IC50, neutralization of ZM106 PsV [14] [µg/mL] | IC50, neutralization of T257 PsV [15] [nM] | IC50, neutralization of PV0 PsV [16] [nM] | IC50, neutralization of THRO PsV [17] [nM] | IC50, neutralization of 3817 PsV [18] [nM] | IC50, neutralization of ZM197 PsV [19] [nM] | IC50, neutralization of pCNE8 PsV [20] | IC50, neutralization of X2088 PsV [21] [nM] | also measured
1 | N49P7 IgG (antibody) | 1.2 | 0.28 | 7.5 | 3.3 | 0.58 | 0.28 | 0.38 | 0.21 | > 50 | 10 | 0.12 | > 50 | 0.18 | 8.3 | 1.9 | 50 | 22 | 3.9 | 1.8 nM | 2.5 | IC50, neutralization of SF162 PsV [9]: 0.15 µg/mL; IC50, neutralization of BG505 PsV [22]: 1.4 nM; IC50, neutralization of SF162 PsV [23]: 1 nM; IC50, neutralization of 278 PsV [24]: > 100 nM; IC50, neutralization of Du422 PsV [25]: 66 nM; IC50, neutralization of JRCSF PsV [26]: 0.85 nM; IC50, neutralization of X1632 PsV [27]: > 100 nM; IC50, neutralization of ZM106 PsV [28]: 1.2 nM
2 | 32-I multabody (PGDM1400 scFab-human apoferritin : scFc-N-Ferritin : iMab A12P scFab-C-Ferritin : 10E8v4 scFab-C-Ferritin, 4:2:1:1) | 0.0015 | 0.12 | 0.033 | 1.8 | 0.0044 | 0.0013 | 3.1 | 0.0026 | 0.008 | 0.7 | 0.004 | 0.008 | 0.0031 | 0.00068 | 0.052 | 0.014 | 0.79 | 0.0019 | 0.57 pM | 1.3 | IC50, neutralization of SF162 PsV [9]: 2.5 µg/mL; IC50, neutralization of BG505 PsV [22]: 0.0011 nM; IC50, neutralization of SF162 PsV [23]: 1.1 nM; IC50, neutralization of 278 PsV [24]: 0.0035 nM; IC50, neutralization of Du422 PsV [25]: 0.31 nM; IC50, neutralization of JRCSF PsV [26]: 0.0017 nM; IC50, neutralization of X1632 PsV [27]: 0.0034 nM; IC50, neutralization of ZM106 PsV [28]: 0.0014 nM
3 | 10E8v4 IgG (antibody) | 1.5 | 6.3 | 0.37 | 3.1 | 0.19 | 0.96 | > 50 | 1.4 | 1.8 | 0.55 | 1.8 | 2.02 | > 50 | 9.8 | 42 | 2.5 | 21 | 1.3 | 6.4 nM | > 100 | IC50, neutralization of BG505 PsV [22]: 9 nM; IC50, neutralization of SF162 PsV [23]: 20 nM; IC50, neutralization of 278 PsV [24]: 12 nM; IC50, neutralization of Du422 PsV [25]: 3.7 nM; IC50, neutralization of JRCSF PsV [26]: 12 nM; IC50, neutralization of X1632 PsV [27]: 13 nM; IC50, neutralization of ZM106 PsV [28]: > 100 nM
